Substitutions are numbered along the chain they refer to. Names and notes keep the numbering of the source. Values belong to the molecule of their own block, whether it stands above or below them.
How the values were obtained:
[1] = target: ExbD_(E113C) (E. coli (K-12 strain)) (UniProt P0ABV2); experiment: cross-linking
[2] = target: ExbD_(N78C) labeled with MTSL (fully assembled Ton complex) (E. coli (K-12 strain)) (UniProt P0ABV2); experiment: DEER spectroscopy
[3] = target: ExbD_(E113C) labeled with MTSL (E. coli (K-12 strain)) (UniProt P0ABV2); experiment: DEER spectroscopy
[4] = target: ExbD_(N78C) labeled with MTSL (Ton subcomplex) (E. coli (K-12 strain)) (UniProt P0ABV2); experiment: DEER spectroscopy
[5] = target: the molecule itself; experiment: crystal structure
[6] = target: the molecule itself; experiment: crystal structure; remark: listed apart in the source
[7] = target: the molecule itself; experiment: DEER spectroscopy

B1: ExbB (natural protein, E. coli (K-12 strain), UniProt P0ABU7 1-244, looked up)
chain: MGNNLMQTDLSVWGMYQHADIVVKCVMIGLILASVVTWAIFFSKSVEFFNQKRRLKREQQLLAEARSLNQANDIAADFGSKSLSLHLLNEAQNELELSEGSDDNEGIKERTSFRLERRVAAVGRQMGRGNGYLATIGAISPFVGLFGTVWGIMNSFIGIAQTQTTNLAVVAPGIAEALLATAIGLVAAIPAVVIYNVFARQIGGFKAMLGDVAAQVLLLQSRDLDLEASAAAHPVRVAQKLRAG
stoichiometry N [5]: 5

B2: ExbB_(C25S), selenomethionine-substituted (natural protein, E. coli (K-12 strain), UniProt P0ABU7 1-244, looked up)
chain: B1 chain with C25S
modifications: selenomethionine-substituted
stoichiometry N [6]: 5

B3: ExbB labeled at C25 with MTSL (natural protein, E. coli (K-12 strain), UniProt P0ABU7 1-244, looked up)
chain: B1 chain
modifications: MTSL spin label on Cys25 (50% labeling efficiency)
stoichiometry N [7]: 5

The next lines start with the values.

stoichiometry N [1]: 2
Molecule: ExbD_(E113C) (from UniProt P0ABV2 1-141) (natural protein)

stoichiometry N [2]: 2
Molecule: ExbD_(N78C) labeled with MTSL (fully assembled Ton complex) (from UniProt P0ABV2 1-141) (natural protein)

stoichiometry N [3]: 2
Molecule: ExbD_(E113C) labeled with MTSL (from UniProt P0ABV2 1-141) (natural protein)

stoichiometry N [4]: 2
Molecule: ExbD_(N78C) labeled with MTSL (Ton subcomplex) (from UniProt P0ABV2 1-141) (natural protein)
